In paper PMC5484490:
Where “and” joins values, the source holds several entries; their conditions need not be identical. Identical values can stand only once.

Assays:
[1] = molecular target: wild type full length human Hsp90β with non-cleavable His6-tag (human); experiment: SEC-MALS; SEC-MALLS on Superdex 200, 0.35 ml/min, 25 mM Na-phosphate pH 7.2, 150 mM NaCl, 5 mM DTT; 10 ul of ~29 g/l loaded; legend: 2.2 uM monomer concentration
[2] = molecular target: wild type full length human Hsp90β with non-cleavable His6-tag (human); experiment: AUC; sedimentation at 42,000 rpm, 20°C, 16 hours, 7.2 uM Hsp90 in 25 Na-phosphate pH 7.2, 150 mM NaCl, 150 mM KCl, 5 mM DTT, protease inhibitor; absorbance optics; SedFit

wild type full length human Hsp90β with non-cleavable His6-tag (natural protein; other documents disagree on this pair)
stoichiometry N [1]: 2 | stoichiometry N [2]: 2 and 4
